Tests used:
ctPrp43 = ctPrp43 (Chaetomium thermophilum? (printed C. …, UniProt G0RY84 1-764)); test: fluorescence anisotropy; AMPPNP (100-fold excess), 3 mM MgCl2; Fluorescence anisotropy: 25 mM Tris pH 7.5, 150 mM KCl, 3 mM MgCl2, 25 C, 0.1 uM RNA, 0.01-50 uM protein, 100-fold excess AMPPNP; conditions: protein: recombinant; tags: GST-tag removed; label: 5' 6-carboxyfluorescein; single strand
[1] = molecular target: ctPrp43-HT (Hook-Turn mutant) (Chaetomium thermophilum? (printed C. …, UniProt G0RY84 1-764, R180G;F181G)); test: as above; conditions: protein: recombinant; tags: GST-tag removed; label: 5' 6-carboxyfluorescein; single strand
Sequence of ctPrp43-HT (Hook-Turn mutant) (Chaetomium thermophilum? (G0RY84 entry or part of it R180G;F181G | mutant): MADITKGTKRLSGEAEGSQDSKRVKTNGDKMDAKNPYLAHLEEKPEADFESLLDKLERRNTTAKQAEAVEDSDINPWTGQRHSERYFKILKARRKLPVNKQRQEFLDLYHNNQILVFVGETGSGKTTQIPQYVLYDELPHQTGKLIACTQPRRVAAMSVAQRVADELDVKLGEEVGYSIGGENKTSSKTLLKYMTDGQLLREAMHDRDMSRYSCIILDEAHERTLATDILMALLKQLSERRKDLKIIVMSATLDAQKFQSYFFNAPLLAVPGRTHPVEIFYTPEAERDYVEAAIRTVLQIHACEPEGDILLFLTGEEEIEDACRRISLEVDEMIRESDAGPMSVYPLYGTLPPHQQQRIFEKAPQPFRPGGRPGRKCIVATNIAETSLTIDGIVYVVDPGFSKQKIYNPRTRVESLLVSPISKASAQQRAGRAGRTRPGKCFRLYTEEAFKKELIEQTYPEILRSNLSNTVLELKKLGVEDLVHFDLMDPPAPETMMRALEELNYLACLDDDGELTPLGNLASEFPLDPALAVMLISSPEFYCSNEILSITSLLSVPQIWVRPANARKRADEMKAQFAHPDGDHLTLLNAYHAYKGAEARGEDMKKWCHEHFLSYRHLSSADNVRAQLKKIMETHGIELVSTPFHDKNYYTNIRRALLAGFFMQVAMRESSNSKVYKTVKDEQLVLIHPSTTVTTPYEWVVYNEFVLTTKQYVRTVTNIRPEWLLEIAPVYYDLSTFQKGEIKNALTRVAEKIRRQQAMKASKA

Sequence of ctPrp43 (Chaetomium thermophilum? (G0RY84 entry or part of it): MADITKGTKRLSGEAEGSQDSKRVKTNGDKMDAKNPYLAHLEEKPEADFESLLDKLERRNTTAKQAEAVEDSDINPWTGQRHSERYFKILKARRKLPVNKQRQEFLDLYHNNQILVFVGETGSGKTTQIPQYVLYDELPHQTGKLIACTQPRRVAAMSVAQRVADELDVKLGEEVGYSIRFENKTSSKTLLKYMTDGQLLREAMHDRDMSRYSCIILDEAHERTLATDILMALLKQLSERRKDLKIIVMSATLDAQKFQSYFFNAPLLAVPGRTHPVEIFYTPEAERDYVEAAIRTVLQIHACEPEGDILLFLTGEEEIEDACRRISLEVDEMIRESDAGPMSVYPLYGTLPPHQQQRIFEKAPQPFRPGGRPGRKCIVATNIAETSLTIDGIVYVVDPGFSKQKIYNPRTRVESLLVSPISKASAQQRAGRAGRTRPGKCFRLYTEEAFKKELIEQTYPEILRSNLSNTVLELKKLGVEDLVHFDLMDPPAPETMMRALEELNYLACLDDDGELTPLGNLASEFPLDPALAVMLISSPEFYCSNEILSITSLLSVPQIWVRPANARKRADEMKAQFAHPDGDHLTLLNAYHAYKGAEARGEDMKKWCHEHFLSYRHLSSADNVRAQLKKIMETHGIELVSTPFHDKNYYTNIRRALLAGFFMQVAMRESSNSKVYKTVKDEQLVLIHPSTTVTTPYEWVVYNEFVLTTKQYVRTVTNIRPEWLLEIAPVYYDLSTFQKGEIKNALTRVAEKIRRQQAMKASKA

Q: How did the Kd (ctPrp43) turn out when UUUUUUUUUUUUUUUU (ssRNA) [5'-6FAM-U16-RNA] was run?
A: The Kd was 4.98 ± 0.57 µM.

Q: What about the Kd [1] of the same binder?
A: The Kd was 840 ± 50 nM.

Reference: paper PMC5262380, “Structural insights into the mechanism of the DEAH-box RNA helicase Prp43”
